In patent US6495317B1, “DNA encodingmannose 6-phosphate reductase and recombinants produced therefrom” (Board of Trustees of Michigan State University, priority 1996, dated 2002):
Where two headings read alike, the source gives them in different places.

Tests used:
[1] = tested on: mannose 6-phosphate reductase (M6PR); test: Kinetic characterization of purified M6PR (mannose 6-phosphate and NADPH kinetics); assay type: biochemical, celery (Apium graveolens); details: 30° C., 33 mM Tris-HCl pH 7.5, 3 mM DTT; for Km: read-out: km
Description: Subsequent purification steps were essentially as described in Loescher et al., Plant Physiol. 98:1396-1402 (1992) except for Reactive Yellow 86 (RY86) chromatography. Here the active fraction from the gel filtration step was split in two, and each fraction run separately on the RY86 column as described in Loescher et al., Plant Physiol. 98:1396-1402 (1992). The active fractions were pooled and either diluted by the addition of 0.5 v of column buffer or desalted using centrifugal concentrating devices (30 kD cut-off membranes) and washed with 2 volumes of column buffer. This step was performed to dilute or remove NADPH. The sample was then loaded back onto the RY86 column and activity eluted in a linear gradient between 0 and 0.2 mM NADPH in column buffer. The purified M6PR was desalted and concentrated using centrifugal filtration and was either used immediately for kinetic characterization or stored at −21° C. after adding glycerol (1:1, v:v).

[2] = tested on: mannose 6-phosphate reductase (M6PR); test: M6PR activity assay (NADPH oxidation), specific activity of purified enzyme; assay type: biochemical, celery (Apium graveolens)
Experimental: Three putative M6PR and one non-positive clone (as determined by antibody screening) were tested for M6PR activity. Duplicate 10 ml cultures of each clone were grown in LB+ampicillin (amp; […]). Once an average OD600 of 0.5 had been attained one culture of each pair was induced by the addition of isopropyl-β-D-thiogalactopyranoside (IPTG; final concentration 10 mM). […] Cultures were maintained at 30° C. for a further 3 h and were harvested at an average OD600 of 1.29±0.02. Cells were pelleted by centrifugation (2000×g for 5 min) and washed twice by resuspending the pellets in 5 ml Tris (100 mM, pH 7.5) containing […], with a centrifugation step between each wash. After the final wash pelleted cells were maintained on ice. Just prior to disruption the cells were resuspended in 4 ml of extraction buffer (100 mM Tris-HCl pH 7.5, […], 10 mM DTT and 0.1% Triton X-100) and transferred to blood dilution vials (American Scientific Products, McGaw Park, Ill.). Cells were ruptured by suspending the vial containing the cells 0.5 cm above the cuphorn probe of a Heat Systems W-385 sonicator (Misonics Farmingdale, N.Y.) and subjecting them to 2 minutes sonication at full power. Coolant was circulated around the vial to maintain the temperature at approximately 4° C. After sonication, 1.5 ml aliquots of the homogenate were centrifuged at 13,000×g for 5 minutes at 4° C. […]

B1: Recombinant M6PR: mannose 6-phosphate reductase purified from IPTG-induced E. coli clone D carrying celery cDNA (SEQ ID NO:2) (protein)
chain: MAITLNSGFKMPVLGLGVWRMDRNEIKNLLLSAINLGYRHFDCAADYKNELEVGEAFKEAFDTDLVKREDLFITTKLWNSDHGHVIEACKNSLKKLQLEYLDLYLIHFPMASKHSGIGTTRSILDDEGVWEVDATISLEATWHEMEKLVEMGLVRSIGISNYDVYLTRDILSYSKIKPAVNQIETHPYFQRDSLIKFCQKYGIAITAHTPLGGALANTERFGSVSCLDDPVLKKLSDKHNKSPAQIVLRWGVQRNTIVIPKSSKTKRLEENINIFDFELSKEDMELIKTMERNQRSNTPAKAWGIDVYA
[1]; 9 NADPH concentrations 1-50 μM, mannose 6-phosphate 12 mM
  Vmax; NADPH: 6.0 ± 2.3 (2;3) μmol mg prot^−1 min^−1
[1]; 9 NADPH concentrations 1-50 μM, mannose 6-phosphate 12 mM, NADPH
  Km: 0.0062 ± 0.0024 mM
[1]; 12 M6P concentrations 1-50 mM, saturating NADPH 200 μM
  Vmax; mannose 6-P: 8.0 ± 1.9 (4;6) μmol mg prot^−1 min^−1
[1]; 12 M6P concentrations 1-50 mM, saturating NADPH 200 μM, mannose 6-P
  Km: 10.1 ± 1.4 mM
[2]; average of three preparations, 1 mU = 1 nmol NADPH oxidized per minute
  average specific activity of the purified enzyme: 3926±833 mU/mg protein
[2]; final two preparations
  specific activity of the purified enzyme: 4441±13 mU/mg
